In patent US20120135472:

Target: T1, small fragment of Nanoarchaeum equitans DNA polymerase (Neq S)
T1 chain: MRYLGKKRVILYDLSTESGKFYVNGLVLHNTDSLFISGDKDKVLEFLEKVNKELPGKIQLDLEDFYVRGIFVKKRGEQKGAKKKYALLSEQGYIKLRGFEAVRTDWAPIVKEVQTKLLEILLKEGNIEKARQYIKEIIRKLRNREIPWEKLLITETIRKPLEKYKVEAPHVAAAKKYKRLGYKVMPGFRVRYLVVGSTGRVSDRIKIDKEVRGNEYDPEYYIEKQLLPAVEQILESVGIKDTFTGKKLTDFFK

B1: large fragment of Nanoarchaeum equitans DNA polymerase (Neq L) (protein)
chain: MLHQLPTMVVEEKAVKEEEGYSVLKCYWINIENTPLDEVILIGKDENNRACEVIIPYKWYFYFEGDIKDLEEFANNKKIKIEYTKEQKKYIEKPKDVYKVYVLHKHYPILKEFIKEKGYKKYETDINVYRKFLIDKGIEPFEWFEVEGKILLSTSNKVRIKAQSIKRLYEKTKPSVLAFDIEVYSEAFPNPEKDKIISIALYGDNYEGVISYKGEPTIKVNTEYELIEKFVEIIESLKPDIIVTYNGDNFDIDFLVKRASLYNIRLPIKLVNKKEPTYNFRESAHVDLYKTITTIYKTQLSTQTYSLNEVAKEILGEEKIYDYENMLYDWAIGNYNKVFEYNLKDAELTYKLFKYYENDLLELARLVNQPLFDVSRFSYSNIVEWYLIKKSRKYNEIVPNKPKMEEVERRKLNTYAGAFVYEPKPGLYENLAVLDFASLYPSIILEHNVSPGTIYCEHDDCKQNGVEAIINNEKKYVWFCKKVKGFIPTVLEHLYTKRLELKRKLKELDRDSEEYKIINAKQAVLKIIINATYGYMGFPNARWYCIDCAAAVAAWGRKYINYILKRAEEEGFKVIYGDSIMDTEIEVIENGIKKKEKLSDLFNKYYAGFQIGEKHYAFPPDLYVYDGERWVKVYSIIKHETETDLYEINGITLSANHLVLSKGNWVKAKEYENKNN
  activity of DNA polymerase (3H-dTTP incorporation, relative to 20 pmoles of Neq P = 100%): The activity of DNA polymerase of the solution was very low after the protein trans-splicing of Neq L and Neq S at 60° C., but was maximized at 95 °C
